# System: synthetic acceptor substrates
# Assay: In vitro glycosyltransferase (GT) assay of GT-CTH mutants with MS detection of glycosylated product
# Type: biochemical
# Settings: purified mutant of GT-CTH, acceptor substrate and UDP-glucose, MS analysis
# Procedure: Purified recombinant nucleotide dependent glycosyltransferase (0.2 μM) is incubated with synthetic acceptor substrates (5 μM) and 100 μM UDP-glucose in a reaction buffer containing 20 mM HEPES, pH 7.5, 50 mM NaCl, 1 mM TCEP and 1 mM MgCl2. The reaction is incubated at 25° C. for 12 h. Each assay reaction was accompanied by control reaction (without enzyme). The reactions are quenched with 5% TFA to pH 2, desalted using ZipTip C18, and vacuum dried and analyzed using mass spectrometry.
# Mass spectrometry has been used to detect glycosylation in product of glycosylation assay reactions using Matrix Assisted Laser Desorption Ionization Time of flight mass spectrometry (MALDI-TOF MS) and Liquid chromatography electrospray ionization mass spectrometry (LC/ESI-MS) techniques. MALDI-TOF MS has carried out at AB Sciex 5800 MALDI TOF/TOF and LC/ESI-MS has carried out at 6550 iFunnel QTOF LC/MS (Agilent Technologies) using Zorbax Eclipse plus C8 column (3.0×150 mm, 5μ) of Agilent technologies. For MALDI-TOF analysis and LC-ESI/MS analysis, vacuum dried samples are reconstituted in water and 0.1% formic acid respectively.
# Various mutations are introduced in recombinant nucleotide dependent glycosyltransferase (GT-CTH) using side directed mutagenesis (Quick change lightning Mutagenesis kit, Agilent) using GTpET28a plasmid as template. The sequence of mutants is verified through DNA sequencing. The mutated recombinant plasmids are transformed into E. coli Lemo21(DE3) and E. coli BL21(DE3) cells for expression. The over expression, purification and functional analysis of mutants of recombinant nucleotide dependent glycosyltransferase proteins are performed using the above mentioned methods. The list of mutants of recombinant nucleotide dependent glycosyltransferase, created in accordance with present invention identifies D102, R136, W147, D152, A153, D154 residues critical for activity of recombinant nucleotide dependent glycosyltransferase (GT-CTH). Replacement of these residues to alanine results into abolishment of the glycosyltransferase activity.
row,Molecule,In vitro glycosyltransferase activity status
1,GT-CTH D131A (protein) MGYSENFIANDWFNVEVFNKNKYTLTNQENKDVTELWLQILKGLKFPNELKETVSYSKNLKELSLKTHAEVSVCIIAKNEQDSIRKCINSIYEFSDEIIFIDTGSIDSTKKIVKEIASEKVKIFDYTWQDAFSDARNYSIQKASKEWILIIDADEYVSSDELIKLRLLIDMLDRFKFKDSLRVSCAIYQLDNVITHGQSRLFRNNNKIKYYGLIHEELRNNKGLDPIFNVESEITFFHDGYKEILRKEKCERNIRLLAKMLEKEPDNVRWAYLYCRDSFSINSNIDFEKILLPFLIKNMDESISCENILLTNYTHLILFLITKKYIIDGKSSLASKCIEVLEKMLPNSSDVTFYKFLNKQHSLYEQQFEFLKEVIQFRKNNEYDQYSQIGCNLLHYDLLISGLLFDVKSYDYSYQYFLKLDLANYFSELEIPDEYKMLINKYRENESLEHHHHHH,Active
2,GT-CTH W147A (protein) MGYSENFIANDWFNVEVFNKNKYTLTNQENKDVTELWLQILKGLKFPNELKETVSYSKNLKELSLKTHAEVSVCIIAKNEQDSIRKCINSIYEFSDEIIFIDTGSIDSTKKIVKEIASEKVKIFDYTWQDDFSDARNYSIQKASKEAILIIDADEYVSSDELIKLRLLIDMLDRFKFKDSLRVSCAIYQLDNVITHGQSRLFRNNNKIKYYGLIHEELRNNKGLDPIFNVESEITFFHDGYKEILRKEKCERNIRLLAKMLEKEPDNVRWAYLYCRDSFSINSNIDFEKILLPFLIKNMDESISCENILLTNYTHLILFLITKKYIIDGKSSLASKCIEVLEKMLPNSSDVTFYKFLNKQHSLYEQQFEFLKEVIQFRKNNEYDQYSQIGCNLLHYDLLISGLLFDVKSYDYSYQYFLKLDLANYFSELEIPDEYKMLINKYRENESLEHHHHHH,Inactive
3,GT-CTH Y241A (protein) MGYSENFIANDWFNVEVFNKNKYTLTNQENKDVTELWLQILKGLKFPNELKETVSYSKNLKELSLKTHAEVSVCIIAKNEQDSIRKCINSIYEFSDEIIFIDTGSIDSTKKIVKEIASEKVKIFDYTWQDDFSDARNYSIQKASKEWILIIDADEYVSSDELIKLRLLIDMLDRFKFKDSLRVSCAIYQLDNVITHGQSRLFRNNNKIKYYGLIHEELRNNKGLDPIFNVESEITFFHDGAKEILRKEKCERNIRLLAKMLEKEPDNVRWAYLYCRDSFSINSNIDFEKILLPFLIKNMDESISCENILLTNYTHLILFLITKKYIIDGKSSLASKCIEVLEKMLPNSSDVTFYKFLNKQHSLYEQQFEFLKEVIQFRKNNEYDQYSQIGCNLLHYDLLISGLLFDVKSYDYSYQYFLKLDLANYFSELEIPDEYKMLINKYRENESLEHHHHHH,Active
4,GT-CTH A153R (protein) MGYSENFIANDWFNVEVFNKNKYTLTNQENKDVTELWLQILKGLKFPNELKETVSYSKNLKELSLKTHAEVSVCIIAKNEQDSIRKCINSIYEFSDEIIFIDTGSIDSTKKIVKEIASEKVKIFDYTWQDDFSDARNYSIQKASKEWILIIDRDEYVSSDELIKLRLLIDMLDRFKFKDSLRVSCAIYQLDNVITHGQSRLFRNNNKIKYYGLIHEELRNNKGLDPIFNVESEITFFHDGYKEILRKEKCERNIRLLAKMLEKEPDNVRWAYLYCRDSFSINSNIDFEKILLPFLIKNMDESISCENILLTNYTHLILFLITKKYIIDGKSSLASKCIEVLEKMLPNSSDVTFYKFLNKQHSLYEQQFEFLKEVIQFRKNNEYDQYSQIGCNLLHYDLLISGLLFDVKSYDYSYQYFLKLDLANYFSELEIPDEYKMLINKYRENESLEHHHHHH,Inactive
5,"GT-CTH D131A, F132D (protein) MGYSENFIANDWFNVEVFNKNKYTLTNQENKDVTELWLQILKGLKFPNELKETVSYSKNLKELSLKTHAEVSVCIIAKNEQDSIRKCINSIYEFSDEIIFIDTGSIDSTKKIVKEIASEKVKIFDYTWQDADSDARNYSIQKASKEWILIIDADEYVSSDELIKLRLLIDMLDRFKFKDSLRVSCAIYQLDNVITHGQSRLFRNNNKIKYYGLIHEELRNNKGLDPIFNVESEITFFHDGYKEILRKEKCERNIRLLAKMLEKEPDNVRWAYLYCRDSFSINSNIDFEKILLPFLIKNMDESISCENILLTNYTHLILFLITKKYIIDGKSSLASKCIEVLEKMLPNSSDVTFYKFLNKQHSLYEQQFEFLKEVIQFRKNNEYDQYSQIGCNLLHYDLLISGLLFDVKSYDYSYQYFLKLDLANYFSELEIPDEYKMLINKYRENESLEHHHHHH",Inactive
6,GT-CTH D152A (protein) MGYSENFIANDWFNVEVFNKNKYTLTNQENKDVTELWLQILKGLKFPNELKETVSYSKNLKELSLKTHAEVSVCIIAKNEQDSIRKCINSIYEFSDEIIFIDTGSIDSTKKIVKEIASEKVKIFDYTWQDDFSDARNYSIQKASKEWILIIAADEYVSSDELIKLRLLIDMLDRFKFKDSLRVSCAIYQLDNVITHGQSRLFRNNNKIKYYGLIHEELRNNKGLDPIFNVESEITFFHDGYKEILRKEKCERNIRLLAKMLEKEPDNVRWAYLYCRDSFSINSNIDFEKILLPFLIKNMDESISCENILLTNYTHLILFLITKKYIIDGKSSLASKCIEVLEKMLPNSSDVTFYKFLNKQHSLYEQQFEFLKEVIQFRKNNEYDQYSQIGCNLLHYDLLISGLLFDVKSYDYSYQYFLKLDLANYFSELEIPDEYKMLINKYRENESLEHHHHHH,Inactive
7,GT-CTH R136A (protein) MGYSENFIANDWFNVEVFNKNKYTLTNQENKDVTELWLQILKGLKFPNELKETVSYSKNLKELSLKTHAEVSVCIIAKNEQDSIRKCINSIYEFSDEIIFIDTGSIDSTKKIVKEIASEKVKIFDYTWQDDFSDAANYSIQKASKEWILIIDADEYVSSDELIKLRLLIDMLDRFKFKDSLRVSCAIYQLDNVITHGQSRLFRNNNKIKYYGLIHEELRNNKGLDPIFNVESEITFFHDGYKEILRKEKCERNIRLLAKMLEKEPDNVRWAYLYCRDSFSINSNIDFEKILLPFLIKNMDESISCENILLTNYTHLILFLITKKYIIDGKSSLASKCIEVLEKMLPNSSDVTFYKFLNKQHSLYEQQFEFLKEVIQFRKNNEYDQYSQIGCNLLHYDLLISGLLFDVKSYDYSYQYFLKLDLANYFSELEIPDEYKMLINKYRENESLEHHHHHH,Inactive
8,GT-CTH D154A (protein) MGYSENFIANDWFNVEVFNKNKYTLTNQENKDVTELWLQILKGLKFPNELKETVSYSKNLKELSLKTHAEVSVCIIAKNEQDSIRKCINSIYEFSDEIIFIDTGSIDSTKKIVKEIASEKVKIFDYTWQDDFSDARNYSIQKASKEWILIIDAAEYVSSDELIKLRLLIDMLDRFKFKDSLRVSCAIYQLDNVITHGQSRLFRNNNKIKYYGLIHEELRNNKGLDPIFNVESEITFFHDGYKEILRKEKCERNIRLLAKMLEKEPDNVRWAYLYCRDSFSINSNIDFEKILLPFLIKNMDESISCENILLTNYTHLILFLITKKYIIDGKSSLASKCIEVLEKMLPNSSDVTFYKFLNKQHSLYEQQFEFLKEVIQFRKNNEYDQYSQIGCNLLHYDLLISGLLFDVKSYDYSYQYFLKLDLANYFSELEIPDEYKMLINKYRENESLEHHHHHH,Inactive
9,"GT-CTH D130A, D131A (protein) MGYSENFIANDWFNVEVFNKNKYTLTNQENKDVTELWLQILKGLKFPNELKETVSYSKNLKELSLKTHAEVSVCIIAKNEQDSIRKCINSIYEFSDEIIFIDTGSIDSTKKIVKEIASEKVKIFDYTWQAAFSDARNYSIQKASKEWILIIDADEYVSSDELIKLRLLIDMLDRFKFKDSLRVSCAIYQLDNVITHGQSRLFRNNNKIKYYGLIHEELRNNKGLDPIFNVESEITFFHDGYKEILRKEKCERNIRLLAKMLEKEPDNVRWAYLYCRDSFSINSNIDFEKILLPFLIKNMDESISCENILLTNYTHLILFLITKKYIIDGKSSLASKCIEVLEKMLPNSSDVTFYKFLNKQHSLYEQQFEFLKEVIQFRKNNEYDQYSQIGCNLLHYDLLISGLLFDVKSYDYSYQYFLKLDLANYFSELEIPDEYKMLINKYRENESLEHHHHHH",Inactive
10,GT-CTH F132A (protein) MGYSENFIANDWFNVEVFNKNKYTLTNQENKDVTELWLQILKGLKFPNELKETVSYSKNLKELSLKTHAEVSVCIIAKNEQDSIRKCINSIYEFSDEIIFIDTGSIDSTKKIVKEIASEKVKIFDYTWQDDASDARNYSIQKASKEWILIIDADEYVSSDELIKLRLLIDMLDRFKFKDSLRVSCAIYQLDNVITHGQSRLFRNNNKIKYYGLIHEELRNNKGLDPIFNVESEITFFHDGYKEILRKEKCERNIRLLAKMLEKEPDNVRWAYLYCRDSFSINSNIDFEKILLPFLIKNMDESISCENILLTNYTHLILFLITKKYIIDGKSSLASKCIEVLEKMLPNSSDVTFYKFLNKQHSLYEQQFEFLKEVIQFRKNNEYDQYSQIGCNLLHYDLLISGLLFDVKSYDYSYQYFLKLDLANYFSELEIPDEYKMLINKYRENESLEHHHHHH,Active
